To fix the notation:
B1: Serine/threonine-protein kinase BSK1 (Arabidopsis thaliana (Mouse-ear cress)), Q944A7 (parent)
chain: MGCCQSLFSGDNPLGKDGVQPQPLSQNNHGGATTADNGGSGGASGVGGGGGGGGIPSFSEFSFADLKAATNNFSSDNIVSESGEKAPNLVYKGRLQNRRWIAVKKFTKMAWPEPKQFAEEAWGVGKLRHNRLANLIGYCCDGDERLLVAEFMPNDTLAKHLFHWENQTIEWAMRLRVGYYIAEALDYCSTEGRPLYHDLNAYRVLFDEDGDPRLSCFGLMKNSRDGKSYSTNLAYTPPEYLRNGRVTPESVTYSFGTVLLDLLSGKHIPPSHALDMIRGKNIILLMDSHLEGKFSTEEATVVVELASQCLQYEPRERPNTKDLVATLAPLQTKSDVPSYVMLGIKKQEEAPSTPQRPLSPLGEACSRMDLTAIHQILVMTHYRDDEGTNELSFQEWTQQMKDMLDARKRGDQSFREKDFKTAIDCYSQFIDVGTMVSPTVFGRRSLCYLLCDQPDAALRDAMQAQCVYPDWPTAFYMQSVALAKLNMNTDAADMLNEAAQLEEKRQRGGRGS

The assay covers variants of B1. Conditions: with bri1_arath BRI1, O22476.
Chain of bri1_arath BRI1, O22476 (O22476 whole entry): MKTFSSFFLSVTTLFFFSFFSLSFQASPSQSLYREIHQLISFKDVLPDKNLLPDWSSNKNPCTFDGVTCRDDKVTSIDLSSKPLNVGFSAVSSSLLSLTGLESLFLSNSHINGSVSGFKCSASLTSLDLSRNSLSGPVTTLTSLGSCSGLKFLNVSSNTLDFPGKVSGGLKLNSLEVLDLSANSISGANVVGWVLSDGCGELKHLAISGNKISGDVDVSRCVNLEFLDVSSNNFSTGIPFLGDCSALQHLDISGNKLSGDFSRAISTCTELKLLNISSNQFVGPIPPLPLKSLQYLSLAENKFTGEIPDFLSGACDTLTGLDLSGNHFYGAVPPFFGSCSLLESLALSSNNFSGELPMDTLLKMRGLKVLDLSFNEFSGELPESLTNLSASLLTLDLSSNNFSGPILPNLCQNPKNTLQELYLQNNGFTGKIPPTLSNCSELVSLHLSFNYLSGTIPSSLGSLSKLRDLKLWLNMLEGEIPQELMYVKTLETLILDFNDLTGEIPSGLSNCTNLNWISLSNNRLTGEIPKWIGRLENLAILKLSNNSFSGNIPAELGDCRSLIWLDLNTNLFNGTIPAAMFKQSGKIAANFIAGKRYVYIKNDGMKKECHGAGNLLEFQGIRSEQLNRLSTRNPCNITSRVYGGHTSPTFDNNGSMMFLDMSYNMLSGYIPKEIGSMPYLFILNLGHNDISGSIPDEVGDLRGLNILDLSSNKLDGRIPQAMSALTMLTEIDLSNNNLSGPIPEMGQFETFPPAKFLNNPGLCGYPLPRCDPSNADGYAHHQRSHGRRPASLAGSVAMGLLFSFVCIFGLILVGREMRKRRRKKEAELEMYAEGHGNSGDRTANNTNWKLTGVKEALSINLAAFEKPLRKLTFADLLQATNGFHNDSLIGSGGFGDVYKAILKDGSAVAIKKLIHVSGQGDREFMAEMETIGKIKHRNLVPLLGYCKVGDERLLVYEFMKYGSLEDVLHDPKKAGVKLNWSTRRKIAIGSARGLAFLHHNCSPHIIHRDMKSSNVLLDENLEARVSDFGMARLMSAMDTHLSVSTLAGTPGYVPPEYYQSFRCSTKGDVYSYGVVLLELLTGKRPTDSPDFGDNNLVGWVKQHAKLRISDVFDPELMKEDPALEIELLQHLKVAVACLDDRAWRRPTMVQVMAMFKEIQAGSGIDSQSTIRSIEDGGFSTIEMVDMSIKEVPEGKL
As to S230A, the “effect of a mutation on the interaction” value was “decreasing interaction”.

The values above are taken from IntAct's records for PubMed 18653891.
